What is called Kd is the free concentration of one partner at which half of the binding sites on the other are occupied at equilibrium, for simple one-to-one binding. The term koff denotes a measure of how fast the partners let go of each other. The kon is a measure of how fast the partners come together.

No end group written: not given here.

Experiment [1] addresses BSA (UniProt P02769 25-607). Kind of experiment: phage ELISA, detected with anti-M13-HRP and ABTS, A405 after 30 min, n=3. Background: ELISA stands for enzyme-linked immunosorbent assay.
For experiment [2], the target named is T1, human VEGF165 (human, UniProt P15692-4 27-191).
T1 construct: Bought recombinant protein; Coated on plates (ELISA), amine-coupled to a CM5 chip (SPR) or added to HUVE cells at 10 ng/mL; also called hVEGF165; vascular endothelial growth factor
T1 sequence (P15692 other isoform, or with tags, fused parts or gaps limits assumed): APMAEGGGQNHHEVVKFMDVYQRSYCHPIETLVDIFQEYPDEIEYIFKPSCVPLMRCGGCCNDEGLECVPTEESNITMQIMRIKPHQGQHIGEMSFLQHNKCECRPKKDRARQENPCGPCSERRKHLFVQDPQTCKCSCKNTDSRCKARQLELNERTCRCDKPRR
Put plainly: surface plasmon resonance (BIAcore), hVEGF165 coupled to a CM5 chip, BBI-VEGF injected.

Experiment [3] deals with T1, human VEGF165. Put plainly: SPR (BIAcore 3000), 6000 RU VEGF on CM5 chip, TNF reference lane, peptide injected; two state reaction model with conformation change. On the technique in general: Surface plasmon resonance follows binding to a sensor surface in real time, without labels.
In experiment [4] the target is T1, human VEGF165. Kind of experiment: plate binding assay: hVEGF165-coated wells, bound beta-lactamase activity measured with nitrocefin (mOD/min).
Experiment [5] concerns the target T1, human VEGF165. Put plainly: SPR (BIAcore 3000), VEGF165 coupled to CM5 chip, peptide injected; two state reaction model with conformation change.

Chain of BSA (P02769 25-607 limits assumed): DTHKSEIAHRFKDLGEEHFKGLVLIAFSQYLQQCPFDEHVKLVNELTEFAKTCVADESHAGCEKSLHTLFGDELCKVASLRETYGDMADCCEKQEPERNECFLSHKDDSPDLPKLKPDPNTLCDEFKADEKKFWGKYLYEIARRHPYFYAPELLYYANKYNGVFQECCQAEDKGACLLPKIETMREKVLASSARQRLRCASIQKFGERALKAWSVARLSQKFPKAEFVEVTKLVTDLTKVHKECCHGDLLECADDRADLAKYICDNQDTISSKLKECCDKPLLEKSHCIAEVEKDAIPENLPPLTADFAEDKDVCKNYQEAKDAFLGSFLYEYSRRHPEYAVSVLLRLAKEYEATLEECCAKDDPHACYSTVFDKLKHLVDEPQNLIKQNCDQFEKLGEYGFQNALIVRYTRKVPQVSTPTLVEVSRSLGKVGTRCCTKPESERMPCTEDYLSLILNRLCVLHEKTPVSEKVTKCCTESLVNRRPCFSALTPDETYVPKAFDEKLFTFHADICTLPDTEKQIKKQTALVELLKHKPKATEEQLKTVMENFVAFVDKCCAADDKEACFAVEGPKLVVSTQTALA

In the case of ACTLWPSYWCGGG [SEQ ID NO 7], in experiment [1], the binding result is reported as “no binding”. For the molecule ACSLWPAFWCGGG [SEQ ID NO 4], the binding result in experiment [1] is “no binding”. On to ACNLWPHFWCGGG [SEQ ID NO 3], for which the binding result in experiment [1] is reported as “no binding”.

B1: BBI-VEGF1 (designed binder)
chain: DDESSKPCCDQCACYNLYGWTCRCSDMRLNSCHSACKSCICALSYPAQCFCVDITDFCYEPCKPSEDDKEN
notes: also called anti-VEGF BBI
Take B1: the binding result in experiment [2] is “binds”.

B2: CK37283 (peptide)
peptide: ACNLWPHFWCGGG
modifications: Probably cyclised by a Cys2-Cys10 disulfide, since it comes from the C7C constrained library. The patent does not say this for the synthetic peptide.
notes: Synthetic peptide from the phage panning
As to B2, in experiment [3], binding was characterised by a dissociation constant (Kd) of 4.9 µM, the koff turned out to be 0.318 s⁻¹ and the kon stood at 12400 M⁻¹ s⁻¹.

B3: BLA (enzyme)
chain: TPVSEKQLAEVVANTITPLMKAQSVPGMAVAVIYQGKPHYYTFGKADIAANKPVTPQTLFELGSISKTFTGVLGGDAIARGEISLDDAVTRYWPQLTGKQWQGIRMLDLATYTAGGLPLQVPDEVTDNASLLRFYQNWQPQWKPGTTRLYANASIGLFGALAVKPSGMPYEQAMTTRVLKPLKLDHTWINVPKAEEAHYAWGYRDGKAVRVSPGMLDAQAYGVKTNVQDMANWVMANMAPENVADASLKQGIALAQSRYWRIGSMYQGLGWEMLNWPVEANTVVEGSDSKVALAPLPVAEVNPPAPPVKASWVHKTGSTGGFGSYVAFIPEKQIGIVMLANTSYPNPARVEAAYHILEALQHHHHHH
notes: also called pCB04; pCB04 (WT)
Turning to B3, the binding result in experiment [4] was “no binding (tested: about 40 µM)”. For the molecule ACYNLYGWTCGGG (cysteine pairing not given here; also: biotinylated, site not given here, Synthetic peptide (FMOC, SynPep)) [biotinylated peptide CK37281], in experiment [5], the Kd came to 1.92 µM, the koff was 0.0122 s⁻¹ and the kon was 2840 M⁻¹ s⁻¹. ACYNLYGWTCGGG [SEQ ID NO 1]: the binding result in experiment [1] is on record as “no binding”. Still for that read-out and setting: to ACTLWPTFWCGGG [SEQ ID NO 2] belongs “no binding”.

The record behind these values is US20050203026A1 (DANISCO US, published 2005).
